Assay results: US20220144922A1 (Adimab, published 2022)

B1: ADI-15660 (antibody, V domains shown)
VH: EVQLVQSGTEVKKPGESLKISCKASGYSSFPNWIGWVRQMPGKGLEYMGSIFPDDSNTRYSPSFRGLVAISADKSLRTAYLQWSSLKASDSAIYYCARGPFPHYFDSWGQGTLVTVSS
VL: NFMLTQPHSVSESPGKTVTISCTRSSGSIARNYVQWYQQRPGSSPTTVIYEDDQRPPGVPDRFSGSIDSSSNSASLTISGLQTEDEADYYCQSYDPTNQNVFGTGTKLTVL
notes: IgG
B2: ADI-15659 (antibody, V domains shown)
VH: QVQLVQSGAEVKKPGSSVKVSCKASGGTFSTYGISWVRQAPGQGLEWMGRVIPMFGTATYAQKFQDRVTITADKATSTAYMELNSLRSDDTAVYYCARCPPFEGVRPPWFDPWGQGTLVTVSS
VL: SYELTQPPSVSVAPGRTAKITCGGYNIGNKRVHWYRQRPGQAPVLIVYDNADRPSGIPERFSGSNSGNTATLTISNVAAGDEADYHCQVWETSSDHPVFGGGTKLTVL
notes: IgG; also called Antibody Number 223
B3: ADI-15658 (antibody, V domains shown)
VH: EVQLVESGGGLVQPGRSLRLSCVTSGFGFDDYAMHWVRQAPGKGLEWVSGIGWNSGGIGYADSVKGRFSISRDNAKNSLYLQMNSLRPEDTAFYYCVKDGTPIAVAGYFEYWGQGTLVTVSS
VL: SYELTQPPSASGTPGQRVTISCSGGRSNIGNNYVYWYQQLPGTAPKLLIYRHDQRPSGVPDRFSGSKSGTSASLAINGLRSEDEADYFCAVWDDSLSCYVFGAGTKLTVL
notes: IgG
B4: ADI-15645 (antibody, V domains shown)
VH: EVQLLESGGGLVQPGGSLRLSCAASGFTFSSYAMSWVRQIPGKGLEWVSTINISGGSTYYADSVKGRFTISRDNSRDTVFLQMNGLRAEDTALYYCARGYHIDWFDFWGQGTLVTVSS
VL: DIVLTQTPSSVSASVGDRVTITCRASQDIGSWLAWYQQKPGKAPQFLIYAASQLQSGVPSRFSGSGSGTDFTLTISSLQPEDFATYYCQQAKSLPRTFGGGTKVDIK
notes: IgG
B5: ADI-15619 (antibody, V domains shown)
VH: QVQLVQSGAEAKKPGASVKVSCTASGYTFTNDINWVRQATGQGLEWMGWMNPNNGHTGYGQKFEDRVTLTRDSSRSTAYMELSSLRFEDTAVYYCVYNFWSDSSVSWGRGTLVTVSS
VL: QSVVTQPPSVSGAPGQSVAISCTGSSSNIGPAYDVHWYQQTPGAAPKLLIYGDSNRPSGVPDRFSTSKSGTSASLAITGLQAEDEADYYCQSFDSSLRGYVFGTGTKVTVL
notes: IgG
B6: ADI-15626 (antibody, V domains shown)
VH: EVQLVESGAEVKKPGSSVKVSCKASGGTFSSYEISWVRQAPGQGLEWMGGINPMFGAANYAQKFQDRVTIIADKSTGTVYMELSSLRSEDTALYYCARERYPSTDDYYRSGRYYGEWGQGTTVTVSS
VL: ETTLTQSPSTLSASVGDRVTITCRASQSIRSWLAWYQQKPGKAPKLLIYRASTSDSGVPSRFSGSGSGTEFTLTISSLQPDDFAIYYCQQYNSIPVTFGQGTKLEIK
notes: IgG
B7: ADI-15640 (antibody, V domains shown)
VH: QVQLVESGPALVKPTQTLTLTCAFSGFSLTTRGMSVSWIRQPPGKALEWLARIDWDDDKYYSTSLKTRLTISKDTSKNQVVLTMSNMDPVDTATYYCARASLYDSGGYYLFFFDYWGQGTLVTVSS
VL: DIVMTQSPSSLSASVGDRVTITCRASQSIGSYLNWYQQKPGKVPKLLIYAASNLQGGVPSRFRGSGSGTDFTLTISNLQPEDFASYYCQLSYSSLWTFGQGTKVEIK
notes: IgG; also called Antibody Number 204
B8: ADI-15577 (antibody, V domains shown)
VH: QVQLVQSGAEVKKPGSSVKVSCKASGGTFGSYAISWVRQAPGQGLEWMGGTIPIFGTADHAQKFQGRVTITADKSTSTAYMELSSLRSEDTAVYYCARGVFRVGCSDTSCLKNYYGTDVWGQGTTVTVSS
VL: QSVLIQPASVSGSPGQSITVSCTGSSGDVGAYKYVSWYQQHPGRGPKLIIYDVSARPSGISDRFSGSKSGNTASLTISGLQAEDEADYYCSSYSSSSTLVVFGGGTKVTVL
notes: IgG
B9: ADI-15651 (antibody, V domains shown)
VH: EVQLVESGPALVKPTQTLTLTCTVSGGVERMSVSWVRQPPGKALEWLARIDWDDDKYYNTFLKTRLTISKGTSKNEVVLTMTNMDPEDTAIYYCARTNRYDKSGYYLYYLDYWGQGTLVTVSS
VL: DIQMTQSPSSLSASVGDKVTITCRASQTIASYVNWYQQHPGKAPKLLIYLASRLQSGAPSRFSGSGSGTDFTLTILNLQPEDFATYYCQQSYSSFFTFGPGTKVEIK
notes: IgG
B10: ADI-15629 (antibody, V domains shown)
VH: EVQLVESGGGLVQPGGSLRLSCAASGFTFSDFAMSWVRQAPGKGLEWVSLIKSSDYAYYADSVRGRFTISRDNSKNTLYLRMNSLRADDTAVYYCAKDADFWSGDSYNGGYNFDSWGQGTLVTVSS
VL: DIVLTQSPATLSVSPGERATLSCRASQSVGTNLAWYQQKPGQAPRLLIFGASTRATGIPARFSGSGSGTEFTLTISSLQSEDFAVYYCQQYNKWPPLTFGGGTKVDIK
notes: IgG
B11: ADI-15667 (antibody, V domains shown)
VH: EVQLVESGGGLVQPGGSLRLSCAASGFTFSDFSMSWVRQAPGKGLEWVSLIKSSGYAYYADSVRGRFTISRDNSKNTLYLQMNSLRAEDTAIYYCAKDADFWSGAAYNGGYNFDSWGQGTLVTVSS
VL: DIQMTQSPATLSVFPGDRATLSCRASQSVGSNLAWYQQKPGQAPRLLIFGASTRATGIPARFSGSGSGTEFTLTISSLQSEDFAVYYCQQYHNWPPLTFGGGTKVDIK
notes: IgG
B12: ADI-15006 (antibody, V domains shown)
VH: EVQLVESGPGLVKPSGTLSLTCTVSGDSMSDYYWSWIRQSPGRGLEWLGYIYYDGSTNYNPSLKGRGTISIDTSKSQFSLTLSSVKAADTAVYYCARGKYYDRGGYYLFYLDYWGQGILVTVSS
VL: DIRLTQSPSSLSASVGDRVTITCRASQTIASYVNWYQQKPGKAPKLLIYAASSLQDGVPSRFSGSGSGTDFALTISSLQPEDFAIYFCQQSYSTPIFTFGPGTKVEIK
notes: IgG; also called Antibody Number 125
B13: ADI-15627 (antibody, V domains shown)
VH: EVQLVESGGGVVQPGRSLRLSCAASGFTFSDYAMHWVRQAPGKGLEWVAVIWYDGGNKYYADSAKGRFTISRDNSKNTLYLQMNSLRAEDTAVYYCAKDRGSIWNVGDGMDVWGQGTTVTVSS
VL: QPVLTQPPSVSVAPGQTARVTCGGNNIGAKSVHWYQQKPGQAPVLVVDDDTDRPSGIPERFSGSNSGNTATLTISRVEAGDEADYYCQVWDASIGPLYVFGTGTKLTVL
notes: IgG; also called Antibody Number 192
B14: ADI-15646 (antibody, V domains shown)
VH: EVQLLESGGGLIQPGGSLRLSCGASGFTVTGNYMHWVRQAPGKGLEWVSVIYAGSSTYYADSVRGRFTISRDKARNTLFLQMNRLRAEDTAVYYCARAGVVGEDRSGWYGPDYFHGLDVWGQGTTVTVSS
VL: ETTLTQSPGTLSLSPGERATLSCRASQSIRNNYLAWYQQKPGQPPRLLIYGESRRATGIPGRFSGSGSGTDFTLTISSLEPEDFAVYYCQQYGGSPYTFGQGTKVDIK
notes: IgG; also called Antibody Number 210
B15: ADI-15561 (antibody, V domains shown)
VH: QVQLVQSGAEVKKPGSSVKVSCKASGGTFSSYAINWVRQAPGQGLEWMGGIIPAFGTTIYAQRFQDRVTITADKSTSTAYMELRSLRSEDTAVYYCARSPPFWSDYSRGWFDPWGQGTLVTVSS
VL: ETTLTQSPSALSASVGDRVTITCRASQTISGYLNWYQQKPGKAPKLLIYAASSLQSGVPSRFSGSSAGTDFTLSISNLQPEDFATYYCQQSYTTPWTFGQGTKVEIK
notes: IgG; also called Antibody Number 132
B16: ADI-15641 (antibody, V domains shown)
VH: QVQLVESGGGVVQPGRSLRVSCAASGFDFSNYAMHWVRQAPGKGLEWVALISYDGNNKVYADSVKGRFTVSRDNSKNTLYLQMNSLRPEDTAVIYCAKDGYLAPDFWGQGTLVTVSS
VL: QSVLTQPASVSGSPGQSIIISCTGTSSDVGEYDYVSWYQHHPHKAPKLIIYEVSNRPSGVSNRFSGSKSGNTASLTISGLQAEDEADYYCSSYTSSSGQAFGTGTKVTVL
notes: IgG; also called Antibody Number 205
B17: ADI-15633 (antibody, V domains shown)
VH: QVQLVQSGAEVKKPGESLKISCKGSGYTFRMYWIGWARLLPGKGLEWIGIIYPGDSDTRYNPSLQGQVTMSVDKSINTAYLQWGSLKASDSAIYYCARLRLHPQSGMDVWGQGTLVTVSS
VL: NFMLTQPHSVSESPGKTVVISCTRSSGSIAGYYVQWYQHRPGSSPTTVIYEDDQRPSGVPDRFSGSVDSSSNSASLTISGLKTEDEADYYCQSYDNAIWVFGGGTKLTVL
notes: IgG

How the values were obtained:
[1] = target: RSV F protein of subtype B strain 18537, on virus (respiratory syncytial virus subtype B …, UniProt P13843 26-574); experiment: cell-based or functional assay
[2] = target: RSV F protein of subtype A strain A2, on virus (respiratory syncytial virus subtype A …, UniProt P03420 26-574); experiment: cell-based or functional assay
[3] = target: T1, postfusion RSV F ectodomain, subtype B (respiratory syncytial virus subtype B); experiment: BLI, IgG on sensor
T1 construct: extracellular domain; also called Postfusion subtype B
Procedure: (§1) IgG binding to DS-Cav1 and FA FP was determined by BLI measurements using a FortéBio Octet HTX instrument (Pall Life Sciences). […] Data was analyzed using the ForteBio Data Analysis Software 7. The data was fit to a 1:1 binding model to calculate an association and dissociation rate, and KD was calculated using the ratio kd/kₐ.

[4] = target: T2, postfusion RSV F ectodomain (F ΔFP), subtype A (respiratory syncytial virus subtype A, UniProt P03420 26-109; P03420 147-524); experiment: BLI, IgG on sensor
T2 construct: extracellular domain; also called Postfusion subtype A
Procedure: as §1

[5] = target: T3, prefusion-stabilized RSV F ectodomain (DS-Cav1), subtype B (respiratory syncytial virus subtype B); experiment: BLI, IgG on sensor
T3 construct: extracellular domain; also called Prefusion subtype B
Procedure: as §1

Binder	Neut IC50 (ug/ml) subtype B [1] [µg/mL]	Neut IC50 (ug/ml) subtype A [2] [µg/mL]	Kd [3] [pM]	Kd [4] [pM]	Kd [5] [pM]
B1	> 10	17.3	105	98	890
B2	> 10	> 10	3660	1130	11000
B3	> 10	6.25	169	180	1810
B4	> 10	> 10	352	367	4600
B5	0.377	1.45	2210	1760	6910
B6	> 10	14.2	653	546	3390
B7	4.82	> 10	196	169	1490
B8	> 10	> 10	679	779	4660
B9	3.29	1.6	453	230	2080
B10	0.088	0.085	213	228	360
B11	0.048	0.039	208	231	333
B12	> 10	19.1	3610	243	4200
B13	2.42	2.17	137	158	1610
B14	> 10	0.846	3180	318	2620
B15	22.4	5.63	1080	591	8620
B16	0.483	0.184	136	161	136
B17	> 10	12.8	111	104	896
